Experimental data reported in patent US20220281980A1 (Bristol-Myers Squibb, published 2022).

T1: human MICA*008 expressed on CHO cells (human, UniProt Q29983 24-331)
T1 construct: also called MICA allele 008
T1 chain: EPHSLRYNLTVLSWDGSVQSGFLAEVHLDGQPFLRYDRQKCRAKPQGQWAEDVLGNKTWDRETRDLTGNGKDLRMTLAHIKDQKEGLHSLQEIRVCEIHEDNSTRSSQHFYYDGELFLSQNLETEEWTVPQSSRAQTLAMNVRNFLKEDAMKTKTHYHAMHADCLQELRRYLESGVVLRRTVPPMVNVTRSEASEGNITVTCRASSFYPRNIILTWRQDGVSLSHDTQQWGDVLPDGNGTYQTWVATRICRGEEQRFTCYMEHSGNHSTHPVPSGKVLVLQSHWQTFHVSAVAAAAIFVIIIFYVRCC

T2: human MICA/B endogenously expressed on 786-O cells (MICA allele *008) (human, UniProt Q29983 24-331)
T2 construct: it speaks of MICA/B, so MICB may be present as well; also called 786-0
T2 chain: T1 chain

T3: human MICA/B endogenously expressed on SW480 cells (human, UniProt Q29983 24-383)
T3 construct: whole, on cells
T3 sequence (looked up): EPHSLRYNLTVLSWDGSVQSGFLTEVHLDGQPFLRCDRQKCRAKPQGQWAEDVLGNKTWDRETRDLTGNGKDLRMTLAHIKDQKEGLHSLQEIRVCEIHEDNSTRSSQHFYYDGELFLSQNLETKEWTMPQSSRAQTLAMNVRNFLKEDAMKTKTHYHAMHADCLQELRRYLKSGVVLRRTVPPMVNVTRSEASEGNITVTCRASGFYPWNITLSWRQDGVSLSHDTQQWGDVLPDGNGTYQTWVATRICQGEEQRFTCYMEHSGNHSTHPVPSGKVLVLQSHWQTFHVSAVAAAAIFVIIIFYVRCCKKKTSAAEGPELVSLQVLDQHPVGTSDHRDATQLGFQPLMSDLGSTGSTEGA

B1: MICA.36 (antibody, V domains shown)
VH: QVQLVESGGGVVQPGRSLRLSCAASGFTFSNYAMHWVRQAPGEGLEWVALIWYDGSNKFYGDSVKGRFTISRDNSKNTLYLQMNSLSAEDTAVYYCAREGSGHYWGQGTLVTVSS
VL: AIQLTQSPSSLSASVGDRVTITCRASQGISSALAWYQQKPGKVPKSLIYDASSLESGVPSRFSGSGSGTDFTLTISSLQPEDFATYYCQQFNSYPITFGQGTRLEIK
notes: it says that the name implies no specific constant region; Radioiodinated in the Scatchard assay; also called MICA.36 antibody
B2: 19G6 (antibody, V domains shown)
VH: B1 VH
VL: B1 VL
notes: Hybridoma antibody from human IgG transgenic mice, parent of MICA.36; also called 19G6 mAb; hybridoma 19G6

Columns and labels:
[1] = biological target: T1, human MICA*008 expressed on CHO cells; assay: saturation binding of 125I-labelled antibody on CHO-MICA*008 cells, 12,500 cells/well; fit of total binding, non-specific binding not subtracted
Method: (§1) Nonspecific binding was determined by binding in the presence of a titration of a 100 fold molar excess of unlabeled antibody and was subtracted from total counts per minute (CPM) to calculate specific binding. A linear standard curve of ¹²⁵I-MICA.36 concentration versus CPM was used to extrapolate specific activity, maximal nM bound ¹²⁵I-MICA.36 and thereby calculate receptor number per cell.
(§2) Specific activity of the iodinated MICA.36 was determined by plotting antibody titrations against the associated CPMs in a standard curve (FIG. 7A). The specific activity was calculated to be 164,214 CPM in 1 nM of ¹²⁵I-MICA.36. The number of receptors per cell was calculated by the following equation: (Bmax)×(Avogadro's number)×(Assay Volume)/# of cells per well.

[2] = biological target: T4, cynomolgus monkey MICA/B clone #6 expressed on CHO cells (cynomolgus monkey); assay: saturation binding of 125I-labelled antibody on CHO-MICA Cyno #6 cells, 25K per well (Scatchard analysis); unit from the x axis 'nM Radioligand'
T4 construct: whole, on cells; also called cyno#6; CHO-cyno MICA clone #6
Method: as §1, §2

[3] = biological target: T5, cynomolgus monkey MICA/B clone #4 expressed on CHO cells (cynomolgus monkey); assay: saturation binding of 125I-labelled antibody on CHO-MICA Cyno #4 cells, 25K per well (Scatchard analysis); unit from the x axis 'nM Radioligand'; curve not saturated at 20 nM
T5 construct: whole, on cells; also called cyno#4; CHO-cyno MICA clone #4
Method: as §1, §2

[4] = biological target: T1, human MICA*008 expressed on CHO cells; assay: saturation binding of 125I-labelled antibody on CHO-MICA*008 cells, 12,500 cells/well (Scatchard analysis); specific = total minus binding with 100-fold unlabelled antibody; unit from the x axis 'nM Antibody'
Method: as §1, §2

[5] = biological target: T2, human MICA/B endogenously expressed on …; assay: saturation binding of 125I-labelled antibody on 786-O cells, 50,000 cells/well (Scatchard analysis); unit from the x axis 'nM Antibody'
Method: as §1, §2

[6] = biological target: T5, cynomolgus monkey MICA/B clone #4 …; assay: saturation binding of 125I-labelled antibody on CHO-MICA Cyno #4 cells, 25K per well; fit of total binding, non-specific binding not subtracted
Method: as §1

[7] = biological target: T4, cynomolgus monkey MICA/B clone #6 …; assay: saturation binding of 125I-labelled antibody on CHO-MICA Cyno #6 cells, 25K per well; fit of total binding, non-specific binding not subtracted
Method: as §1, §2

[8] = biological target: T2, human MICA/B endogenously expressed on …; assay: saturation binding of 125I-labelled antibody on 786-O cells, 50,000 cells/well; fit of total binding, non-specific binding not subtracted
Method: as §1

[9] = biological target: T2, human MICA/B endogenously expressed on …; assay: Scatchard analysis, 125I-MICA.36 on 786-0 cells; 786-0 cells (FIG. 7F)
Method: as §1, §2

[10] = biological target: T3, human MICA/B endogenously expressed on …; assay: saturation binding of 125I-labelled antibody on SW480 cells, 25,000 cells/well (Scatchard analysis); x axis 'Ab' carries no unit, nM taken from paragraph 587; non-specific binding is nearly as high as specific binding
Method: as §1, §2

[11] = biological target: T4, cynomolgus monkey MICA/B clone #6 …; assay: flow cytometry (GMFI, FACSCalibur), CHO cells with cyno MICA #6; unit from the x axis; curve from about 1500 at 0.1 ug/ml to about 40500 GMFI at 40 ug/ml

| Binder | Kd of the total-binding curve [1] [nM] | Kd [2] [nM] | Kd [3] [nM] | Kd [4] [nM] | Kd [5] [nM] | Kd of the total-binding curve [6] [nM] | Kd of the total-binding curve [7] [nM] | Kd of the total-binding curve [8] [nM] | Kd [9] [nM] | Kd [10] [nM] | EC50 [11] [µg/mL] |
| --- | --- | --- | --- | --- | --- | --- | --- | --- | --- | --- | --- |
| B1 | 1.24 | 5.12 | 11 | 1.07 | 0.356 | 10.2 | 8.27 | 0.6 | ~0.4 | 0.385 |  |
| B2 |  |  |  |  |  |  |  |  |  |  | 3.3 |
